Experiments:
Format in all cases: cell-based, human
[1] = tested on: CD4+ T cells; experiment: CAR gene transfer (EGFRt flow cytometry) in CD4+ T cells, dd-SB100X vs wild type SB100X plasmid; settings: day 7
Protocol: (4A) CAR gene transfer in CD4+ T cells using dd-SB100X fusion-transposase vs. wild type SB100X transposase. CD3/CD28 activated CD4+ T cells were nucleofected with CD19-CAR_EGFRt SB transposon minicircle DNA and plasmid encoding either the fusion-transposase (pdd-SB100X/dd-SB100X) or the wild type SB transposase (pSB100X/SB100X). At 7 days post-nucleofection, flow cytometric analysis was performed to determine the percentage of T cells that express the EGFRt reporter. Top panel: Dot plots show EGFRt expression on day 7 post-nucleofection.
(§1) Anonymous healthy donor blood samples were received upon written consent to participate in research protocols approved by the Institutional Review Board of the Universitätsklinikum Würzburg (UKW). Blood samples were processed for T cells isolation as published earlier (Querques et al., 2019). Briefly, Peripheral blood mononuclear cells (PBMCs) were isolated by density centrifugation with Biocoll separating solution (Biochrom). Both CD4+ and CD8+ T cells were sorted by negative isolation approach using microbeads and magnetic associated cell sorting (MACS, Miltenyi) methods as described by the manufacturer. The isolated CD4+ and CD8+ T cells were cultured in T cell medium (RPMI-1640 with 10% (vol/vol) human serum, 2 mM L-glutamine, 100 U ml-1 penicillin-streptomycin) containing IL-2 (50 units per mL) and activated by anti-CD3/CD28 bead stimulation (Thermo Fisher). Two days post-activation, approximately 2 million T cells were nucleofected with vectors (1 μg of CD19 CAR (EGFRt)-encoding transposon as plasmid or minicircle DNA; 1 μg of mRNA encoding SB transposase) or 10 μg of hsSB protein (Querques et al., 2019) using a 4D Nucleofector (Lonza) as per the manufacturer's instructions. […]
We next investigated if the dd-SB100X fusion-transposase retained transposition activity in primary human T cells. […] We observed differences in CD19-CAR_EGFRt expression, as evidenced by mean fluorescence intensity (MFI) of EGFRt by flow cytometry.

[2] = tested on: HeLa cells; experiment: Transposition assay (G-418-resistant colonies) in HeLa cells; settings: presence of TMP
Description: (2D) Transposition assay for evaluating the activity of dd-SB100X fusion-transposase. HeLa cells were transfected with neomycin-marked transposon plasmid and construct expressing wild type SB transposase (SB100X) or fusion-transposase (dd-SB100X), and selected for transposition events by antibiotic selection with G-418. Data representing the number of G-418-resistant colonies are shown on the right.
An transposon donor vector with neomycin resistance gene was generated de novo in house using Gibson assembly. In order to test the activity (in terms of integration capability) of the fusion-transposase (dd-SB100X) transposition assay was performed in HeLa cells as per the published protocol (Ivics et al., 1997). Briefly, ˜150,000 HeLa cells were seeded into each well of a 6-well plate a day before transfection. […] After 10 days of selection, cells were washed with PBS, fixed with tissue culture fixing solution, stained with methylene blue and counted.
We next examined the activity of the fusion-transposase (dd-SB100X) by standard transposition assay wherein we transfected HeLa cells with a SB transposon donor plasmid encoding a neomycin resistance gene, together with plasmid encoding SB100X as a positive control, or the fusion-transposase protein. […] After 10 days, colonies were fixed, stained and counted to determine the integration events achieved under each of the experimental conditions.

[3] = tested on: CD8+ T cells; experiment: Gene transfer in CD8+ T cells with TMP priming before nucleofection; settings: day 7
Protocol: CD8+ T cells were isolated from healthy donor PBMC and activated with CD3/CD28 bead stimulation. […] Cells were nucleofected with CD19-CAR_EGFRt SB transposon minicircle DNA and plasmid encoding either the wild type SB transposase (SB100X) or the fusion-transposase (dd-SB100X). […] At 7 days post-nucleofection, flow cytometric analysis was performed to determine the percentage of T cells that expresses the EGFRt reporter. Top panel: Dot plots show EGFRt expression on day 7 post-nucleofection.
as §1, with “instructions. CD19 CAR-modified (i.e., EGFRt+) T cells were enriched using biotin-conjugated anti-EGFR monoclonal antibody and anti-biotin beads (Miltenyi) as per the manufacturer's instructions.” for “instructions.”

[4] = tested on: CD19 CAR T cells; experiment: Transposon (CAR) copy number analysis by ddPCR in CAR T cells; settings: plasmid-encoded transposase, EGFRt-enriched CAR T cells
Protocol: (4C) CAR Copy number analysis of CD8+ CD19 CAR T cells engineered with dd-SB100X fusion transposase. The number of integrations per genome was analyzed by ddPCR. Data shown are mean values of three biological replicates measured in technical triplicates and shown ±S.E.M. The data was analyzed using unpaired, two-tailed Student's T-test and differences were statistically significant (*, p=0.0274).
(6D) Transposon copy number analysis in EGFRt+ CD8+ T cells that were nucleofected with CD19-CAR_EGFRt SB transposon minicircle DNA and mRNA encoding either the wild type SB transposase (SB100X) or the fusion-transposase (dd-SB100X) assessed by digital droplet PCR.
Genomic DNA (gDNA) of CAR-positive T cells was isolated using dPureLink gDNA Mini Kit (Invitrogen, California, USA). Droplet digital PCR (ddPCR) was set up and analyzed in technical triplicates. Each ddPCR reaction contained ready-to-use ddPCR Supermix for Probes No dUTP (Bio-Rad, California, USA), 20 ng of the respective fragmented gDNA, 0.2 μL of CviQl (10 000 U/mL) (NEB, Frankfurt am Main, Germany), 0.1 μL of Dpnl (20,000 U/mL) (NEB, Frankfurt am Main, Germany), 200 nM of each respective ddPCR FAM/HEX probe, and 600 nM of each respective forward and reverse primer in a final volume of 25 μL. CviQl was used to fragment the gDNA to ensure single-copies per droplet. DPNI was used to specifically digest non-integrated vectors. […]

[5] = tested on: K562/CD19 target cells; experiment: Antigen specific proliferation (CFSE dye dilution) of CD19 CAR T cells; settings: 72 hours, stimulation with K562/CD19 target cells
Protocol: (4E) Antigen specific proliferation by CD4+ CD19 CAR T cells engineered with dd-SB100X fusion transposase. Proliferation of CD4+ CAR T cells was examined by CFSE dye dilution after 72 hours of co-culture with K562/CD19 or K562 target cells. For analysis, triplicate wells were pooled and the proliferation of viable 7-AAD-negative T cells was analyzed. The division index (average number of cell divisions) was calculated using FlowJo software. Data shown are mean values ±s.d. of one representative experiment.
as §1, with “Fisher).” for “Fisher). Two days post-activation, approximately 2 million T cells were nucleofected with vectors (1 μg of CD19 CAR (EGFRt)-encoding transposon as plasmid or minicircle DNA; 1 μg of mRNA encoding SB transposase) or 10 μg of hsSB protein (Querques et al., 2019) using a 4D Nucleofector (Lonza) as per the manufacturer's instructions.”

B1: dd-SB100X: ecDHFR destabilizing domain fused via linker to N-terminus of SB100X transposase; SEQ ID NO: 2 (protein)
chain: MISLIAALAVDYVIGMENAMPWNLPADLAWFKRNTLNKPVIMGRHTWESIGRPLPGRKNIILSSQPSTDDRVTWVKSVDEAIAACGDVPEIMVIGGGRVIEQFLPKAQKLYLTHIDAEVEGDTHFPDYEPDDWESVFSEFHDADAQNSHSYCFEILERKLGGGAPAVGGGPKMGKSKEISQDLRKRIVDLHKSGSSLGAISKRLAVPRSSVQTIVRKYKHHGTTQPSYRSGRRRVLSPRDERTLVRKVQINPRTTAKDLVKMLEETGTKVSISTVKRVLYRHNLKGHSARKKPLLQNRHKKARLRFATAHGDKDRTFWRNVLWSDETKIELFGHNDHRYVWRKKGEACKPKNTIPTVKHGGGSIMLWGCFAAGGTGALHKIDGIMDAVQYVDILKQHLKTSVRKLKLGRKWVFQHDNDPKHTSKVVAKWLKDNKVKVLEWPSQSPDLNPIENLWAELKKRVRARRPTNLTQLHQLCQEEWAKIHPNYCGKLVEGYPKRLTQVKQFKGNATKY
modifications: misc_feature 1..1539 ecDHFR-SB100X
[1]; cultured in absence of TMP after nucleofection
  gene transfer rate (EGFRt+ T cells): ~6.6%
[1]; dd-SB100X cultured in presence of TMP after nucleofection, SB100X wild type control
  gene transfer rate (EGFRt+ T cells): ~18%
[1]; presence of TMP
  MFI of EGFRt compared to wild type SB100X: lower MFI
[2]
  transposition activity: active and mediated transposition activity
  transposition activity compared to wild type SB100X: reduced transposition activity
[3]
  MFI of EGFRt expression compared to wild type SB100X: lower MFI
[3]; not primed with TMP
  gene transfer (EGFRt+ T cells): ~26.1%
[3]; primed with TMP 1000 nM for 24 hours before nucleofection
  gene transfer (EGFRt+ T cells): ~29.7%
[4]
  transposon copies per genome (average): 2.99 copies per genome
[5]
  proliferation (cell divisions): > 3 cell divisions
